Experimental data taken from patent publication US20260078171A1.

What was measured:
[1] = target: SARS-CoV-2 Omicron XBB.1.5 spike protein, Monogram pseudovirus (SARS-CoV-2) (UniProt P0DTC2); assay: cell-based or functional assay
[2] = target: SARS-CoV-2 Omicron BA.4.1 spike protein (authentic virus) (SARS-CoV-2); assay: cell-based or functional assay
[3] = target: SARS-CoV-2 Omicron BA.1 spike protein (authentic virus / MLV pseudovirus) (SARS-CoV-2); assay: cell-based or functional assay
[4] = target: SARS-CoV-2 Beta spike protein (MLV pseudovirus) (SARS-CoV-2); assay: cell-based or functional assay
[5] = target: SARS-CoV-2 Omicron BA.2.75 spike protein, Monogram pseudovirus (SARS-CoV-2) (UniProt P0DTC2); assay: cell-based or functional assay
[6] = target: SARS-CoV-2 Omicron BA.2 spike protein (authentic virus / MLV pseudovirus) (SARS-CoV-2); assay: cell-based or functional assay
[7] = target: SARS-CoV-2 Delta spike protein (authentic virus / MLV pseudovirus) (SARS-CoV-2); assay: cell-based or functional assay
[8] = target: SARS-CoV-2 Omicron BN.1 spike protein, Monogram pseudovirus (SARS-CoV-2) (UniProt P0DTC2); assay: cell-based or functional assay
[9] = target: SARS-CoV-2 Omicron XBB.1 spike protein, Monogram pseudovirus (SARS-CoV-2) (UniProt P0DTC2); assay: cell-based or functional assay
[10] = target: SARS-CoV-2 Omicron BA.2.75 spike glycoprotein (lentivirus-based pseudovirus) (SARS-CoV-2); assay: cell-based or functional assay
[11] = target: SARS-CoV-2 B.1.617.2 (Delta) spike protein, Monogram pseudovirus (SARS-CoV-2) (UniProt P0DTC2); assay: cell-based or functional assay
[12] = target: SARS-CoV-2 Omicron XBB spike protein, Monogram pseudovirus (SARS-CoV-2) (UniProt P0DTC2); assay: cell-based or functional assay
[13] = target: SARS-CoV-2 Omicron BA.5 spike glycoprotein (lentivirus-based pseudovirus) (SARS-CoV-2); assay: cell-based or functional assay
[14] = target: SARS-CoV-2 Beta RBD (SARS-CoV-2); assay: bio-layer interferometry (BLI, Octet), monovalent Fab affinity

Sequence of VYD222 (antibody) (VH): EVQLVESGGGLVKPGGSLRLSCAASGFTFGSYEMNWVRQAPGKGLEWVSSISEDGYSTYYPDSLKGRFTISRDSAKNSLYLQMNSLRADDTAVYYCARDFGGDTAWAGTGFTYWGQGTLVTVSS
Sequence of VYD222 (antibody) (VL): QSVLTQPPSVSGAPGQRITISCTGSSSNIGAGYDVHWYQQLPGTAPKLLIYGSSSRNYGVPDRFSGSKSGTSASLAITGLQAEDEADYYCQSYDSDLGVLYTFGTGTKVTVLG
Sequence of ADI-58125 (antibody) (VH): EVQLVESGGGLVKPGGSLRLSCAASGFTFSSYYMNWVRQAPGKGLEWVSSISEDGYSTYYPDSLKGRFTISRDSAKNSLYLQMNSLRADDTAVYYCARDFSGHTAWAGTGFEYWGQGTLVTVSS
Sequence of ADI-58125 (antibody) (VL): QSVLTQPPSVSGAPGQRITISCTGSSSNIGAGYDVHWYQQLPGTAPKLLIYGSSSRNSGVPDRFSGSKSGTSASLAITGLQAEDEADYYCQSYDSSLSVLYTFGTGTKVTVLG
Sequence of VYD224 (antibody) (VH): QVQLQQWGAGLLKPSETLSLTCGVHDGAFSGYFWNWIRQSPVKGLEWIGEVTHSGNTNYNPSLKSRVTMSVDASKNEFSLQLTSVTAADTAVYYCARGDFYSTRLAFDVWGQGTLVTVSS
Sequence of VYD224 (antibody) (VL): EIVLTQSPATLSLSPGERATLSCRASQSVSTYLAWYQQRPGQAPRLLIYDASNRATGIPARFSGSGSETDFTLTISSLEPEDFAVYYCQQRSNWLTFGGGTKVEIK
Sequence of VYD223 (antibody) (VH): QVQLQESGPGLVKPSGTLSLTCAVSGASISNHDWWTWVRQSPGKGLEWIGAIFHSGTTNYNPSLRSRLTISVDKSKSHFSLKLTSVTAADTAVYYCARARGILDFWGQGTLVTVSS
Sequence of VYD223 (antibody) (VL): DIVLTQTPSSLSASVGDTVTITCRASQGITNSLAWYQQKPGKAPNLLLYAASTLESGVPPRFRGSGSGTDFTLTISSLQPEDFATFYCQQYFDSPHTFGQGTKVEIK

| Substance | IC50, authentic virus neutralization [2] [ng/mL] | IC90, authentic virus neutralization [2] [ng/mL] | IC50, authentic virus neutralization [3] [ng/mL] | IC90, authentic virus neutralization [3] [ng/mL] | IC50, authentic virus neutralization [6] [ng/mL] | IC90, authentic virus neutralization [6] [ng/mL] | IC50, authentic virus neutralization [7] [ng/mL] | IC90, authentic virus neutralization [7] [ng/mL] | also measured |
| --- | --- | --- | --- | --- | --- | --- | --- | --- | --- |
| VYD222 (antibody) | 41 | 524 | 26 | 143 | 8 | 231 | 16 | 103 | IC50, PhenoSense pseudovirus neutralization [1]: 81 ng/mL; IC50, MLV-based pseudovirus neutralization [3]: < 0.0001 ng/mL; IC50, MLV-based pseudovirus neutralization [4]: < 0.0001 ng/mL; IC50, PhenoSense pseudovirus neutralization [5]: 1360 ng/mL; IC50, MLV-based pseudovirus neutralization [6]: < 0.0001 ng/mL; IC50, MLV-based pseudovirus neutralization [7]: < 0.0001 ng/mL; IC50, PhenoSense pseudovirus neutralization [8]: 2110 ng/mL; IC50, PhenoSense pseudovirus neutralization [9]: 121 ng/mL; IC50, lentivirus-based pseudovirus neutralization [10]: 100 ng/mL; IC50, PhenoSense pseudovirus neutralization [11]: 4.2 ng/mL; IC50, PhenoSense pseudovirus neutralization [12]: 152 ng/mL; IC50, lentivirus-based pseudovirus neutralization [13]: 30 ng/mL |
| ADI-58125 (antibody) | > 5000 | > 5000 | > 5000 | > 5000 | > 5000 | > 5000 | 49 | 156 |  |
| CoV2-2130 (antibody) | 88 | 587 | > 5000 | > 5000 | 11 | 37 | 61 | 136 |  |
| VYD223 (antibody) | 63 | 437 | 15 | 68 | 16 | 84 | 13 | 60 |  |
| LY-CoV1404 (antibody) | 26 | 100 | 4 | 152 | 10 | 69 | 27 | 96 |  |
| ADI-58125 (Fab) |  |  |  |  |  |  |  |  | Kd [14]: 6.4 nM |
| VYD224 (antibody) | 126 | 359 | 10 | 23 | 16 | 54 | 6 | 14 | IC50, PhenoSense pseudovirus neutralization [1]: > 5000 ng/mL; IC50, PhenoSense pseudovirus neutralization [5]: 4 ng/mL; IC50, PhenoSense pseudovirus neutralization [8]: 1.5 ng/mL; IC50, PhenoSense pseudovirus neutralization [9]: > 5000 ng/mL; IC50, lentivirus-based pseudovirus neutralization [10]: 10 ng/mL; IC50, PhenoSense pseudovirus neutralization [11]: 1 ng/mL; IC50, PhenoSense pseudovirus neutralization [12]: > 5000 ng/mL; IC50, lentivirus-based pseudovirus neutralization [13]: 80 ng/mL |
